Experimental data taken from the DeepSol protein solubility set.

Assay: soluble on expression in E. coli; label from the status in PepcDB or PDB records

| Sequence | soluble on expression in E. coli |
| --- | --- |
| MARKTKPLTDTEIKAAKPKDADYQLYDGDGLTLLIKSSGSKLWQFRYYRPLTKQRTKQSFGAYPAVSLSDARKLRAESKVLLAKDIDPQEHQKEQVRNSQEAKTNTFLLVAERWWNVKKTSVTEDYADDIWRSLERDIFPAIGDISITEIKAHTLVKAVQPVQARGALETVRRLCQRINEVMIYAQNTGLIDAVPSVNIGKAFEKPQKKNMPSIRPDQLPQLMHTMRTASISMSTRCLFMWQLLTITRPAEAAEARWDEIDFNASEWKIPAARMKMNRDHTVPLSDGALAILEMMKPLSGGREFIFPSRIKPNQPMNSQTVNAALKRAGLGGVLVSHGLRSIASTALNEEGFPPDVIEAALAHVDKNEVRRAYNRSDYLEQRRPMMQWWADLVKAADSGSIVLTHLSKIRLVG | soluble |
| SYYHHHHHHHEGVRTMEEECRVLSIQSHVIRGYVGNRAATFPLQVLGFEIDAVNSVQFSNHTGYAHWKGQVLNSDELQELYEGLRLNNMNKYDYVLTGYTRDKSFLAMVVDIVQELKQQNPRLVYVCDPVLGDKWDGEGSMYVPEDLLPVYKEKVVPLADIITPNQFEAELLSGRKIHSQEEALRVMDMLHSMGPDTVVITSSDLPSPQGSNYLIVLGSQRRRNPAGSVVMERIRMDIRKVDAVFVGTGDLFAAMLLAWTHKHPNNLKVACEKTVSTLHHVLQRTIQCAKAQAGEGVRPSPMQLELRMVQSKRDIEDPEIVVQATVL | soluble |
| MLPEIWKHDSPYFRPEGDTRGEAVLPIGMPMRQQYDFSSSRKNPYAAKLKKPVTIRLDEESISYFKSMSEETGIPYQSLINLYLKECAASGKRLNLSWK | not soluble |
| MGSDKIHHHHHHMINQVYQLVAPRQFEVTYNNVDIYSDYVIVRPLYMSICAADQRYYTGSRDENVLSQKLPMSLIHEGVGEVVFDSKGVFNKGTKVVMVPNTPTEKDDVIAENYLKSSYFRSSGHDGFMQDFVLLNHDRAVPLPDDIDLSIISYTELVTVSLHAIRRFEKKSISNKNTFGIWGDGNLGYITAILLRKLYPESKIYVFGKTDYKLSHFSFVDDVFFINKIPEGLTFDHAFECVGGRGSQSAINQMIDYISPEGSIALLGVSEFPVEVNTRLVLEKGLTLIGSSRSGSKDFQDVVDLYIQYPDIVDKLALLKGQEYEIATINDLTEAFEADLSTSWGKTVLKWIM | not soluble |
| MKLIFILSIIFLSSLSVAQSPISCAFCMAGLAQINQQVISSPDMEAQMGIQASQGCDQIPVKQTRETCRGSLNTNFNIFYSNFTGQANNSPTQMCINMGMC | not soluble |
| MGSDKIHHHHHHMSDKTNLSHNVVNKEEFAGDPKPHPAAYTLVREDKGLGSTPKLPLETSYVKGLLKHDKFFQKALSNPIVAREFFEEYLPTEIKALFSPTTLTLENDSFIDPNLKESITDVLYSARINNRDCYIYILCEHQSSSDPHMAFRLFKYMLNIAEKHLISHPDSKKFPFIYPLVYSNDHKKYTAPLNLWDLFENSELVKDTWSNNYQLISLRDISDDKLKENPWLAPLQILMKYIHKPNVFDKWQEISGCLATIAASSSGIEYIKSALSYSLTKI | not soluble |
| GPGSMHLDEMLKEIQDMQEKNWTAVERTDIILAKLCAFLDKLAHSLRFMATSQPSCGAGAVCSAGVAVTTHTHGESARGLRISRDIRTAAAGRPFETEVDD | soluble |
| MSTQPDTSLRATKRLKTRISVEDAATALVLRDGFDNVTVEDICAAAEISKRTFFNYFDSKENAVFGDIQVDILPQLREEFLSHPHEDLPEAVIRLHMNLVFSGKDFDPHTRGEIIRRRKTIRHNNPERSFNYNALYHKVFINFKTLVNEYFEHFPEQRRLGGDVDVEATAVVLSSSYAIRFGFTLWADSPSASFSTLEESCLEALVHLRTINKGL | not soluble |
| MPKWISIDEAAHKYGVKEEDICLWAEMEAITAYFTETTLIIDEKSLQKFMYLRKNLPTTGYIRTLEQLCINQSEVCKLYMEVIELQEKDLQYKKRRISVLERQYAMATKQNKLREKIITITSDMLSKAESGWWEKLWMKISNRQKL | not soluble |
| MQDDPRYRVEVEVSPRFLAHQSTPEEGRYAFAYSIRIQNAGAVPARLIARHWKITDANGRTEQVDGEGVVGEQPRLRPGEAFHYTSGVLLETEQGQMQGYYDMVADDGTEFTAPIAAFVLSVPRTLHLEHHHHHH | soluble |
| MAYCNPGLESRPNKRNALRRHVVTGIGMKIVIAPDSYKESLSASEVAQAIEKGFREIFPDAQYVSIPVADGGEGTVEAMIAATQGSERHAWVTGPLGEKVNASWGISGDGKTAFIEMAAASGLELVPAEKRDPLVTTSRGTGELILQALESGATNIIIGIGGSATNDGGAGMVQALGAKLCDANGNEIGFGGGSLNTLNDIDISGLDPRLKDCVIRVACDVTNPLVGDNGASRIFGPQKGASEAMIVELDNNLSHYADVIKKALHVDVKDVPGAGAAGGMGAALMAFLGAELKSGIEIVTTALNLEEHIHDCTLVITGEGRIDSQSIHGKVPIGVANVAKKYHKPVIGIAGSLTDDVGVVHQHGIDAVFSVLTSIGTLDEAFRGAYDNICRASRNIAATLAIGMRNTG | not soluble |
| SKVMTLKDAIAKYVHSGDHIALGGFTTDRKPYAAVFEILRQGITDLTGLGGAAGGDWDMLIGNGRVKAYINCYTANSGVTNVSRRFRKWFEAGKLTMEDYSQDVIYMMWHAAALGLPFLPVTLMQGSGLTDEWGISKEVRKTLDKVPDDKFKYIDNPFKPGEKVVAVPVPQVDVAIIHAQQASPDGTVRIWGGKFQDVDIAEAAKYTIVTCEEIISDEEIRRDPTKNDIPGMCVDAVVLAPYGAHPSQCYGLYDYDNPFLKVYDKVSKTQEDFDAFCKEWVFDLKDHDEYLNKLGATRLINLKVVPGLGYHIDMTKE | soluble |
| METTIFQFQKTFFTKPPKERVFVLHGEEQYLIRTFLSKLKEKYGENYTVLWGDEISEEEFYTALSETSIFGGSKEKAVVIYNFGDFLKKLGRKKKEKERLIKVLRNVKSNYVFIVYDAKLQKQELSSEPLKSVASFGGIVVANRLSKERIKQLVLKKFKEKGINVENDALEYLLQLTGYNLMELKLEVEKLIDYASEKKILTLDEVKRVAFSVSENVNVFEFVDLLLLKDYEKALKVLDSLISFGIHPLQIMKILSSYALKLYTLKRLEEKGEDLNKAMESVGIKNNFLKMKFKSYLKANSKEDLKNLILSLQRIDAFSKLYFQDTVQLLRDFLTSRLEREVVKNTSHGG | soluble |
| MGTTVEGGRSGPRYVQVADEIVQQIRAGVLKPGDMVPSESEMVDRYGVSGGTIRKAMVEVRASGLVETRHGKGSIVKDRPPVRHRSSDRFRRSLRQGGKAAYLAESEQSGATAKVSVLYIGPMEAPADAAQRLGVPAGTQVLARRRLYFRNGTPVETASSYLPWDVVKDIPELFAENPGGGGIYARLEDHGHEFAEFVETLQARPASKAEATELALSPGAPVVHLIREARTAAGLVVEVCDTLMAADQFVFEYRIPAAD | not soluble |
| MSLTDVEEQQLTVLKDPNCGCCEKWLQALPDSFSVSVQHPNNLTQRKRDSGISAEVQSCHTAISSNGYVFEGHVPPTLVSHYLAGKKSENGIGLTVPGMPVGSVGMEMGTRFQPYTVYEIKKDGSITPYQQIASLEQQQALSNEGLEGHHHHHH | soluble |
| MAHHHHHHMCAYASILVVSAVHLCFCYRSHTSQSMTPAKALRLSSLPLATAWWRQHGLADRLEGFRACRQPTPRQRPLQRTADGGVSLGWAGLLAGAEQSRTSSITTATDRPPDLPLVLVSACLLSYPVTYRGTHTNLPASLRPTPLLFLTEVLFKELGLVQCVPVCPEVQWLGLPVPRVPLRLVRGSRGTDDARQRGSGWAAAQHSSSATLPSLSMSASDSVAIKGEREARYLVESSAEDHVLLRCDAPNDTFAEQSPSPQLHSAFLAQLVQDLKAVDGIILKSYSPSCGVRDARLYEEAVTSPPSSPCDQHACNACERAGKPTSASFIGRRPAASASAQRRFDLVDGFFTQQLRDFLTSMHGVGGERRADARCHSEAAAPVITCDRLLTDFYTEERLRRSPLAGKVKKRHVAGNASEAAPHLTSLDSFMESVLQHRDWRVSQHRC | not soluble |
| MKETIIVVHERPDIYDPVFIEGLPGIGLVGKLAAEHLIQELKAKKFAELYSPHFMHQVLIRKGSIVELMKNEFYYWKSPDDEHRDLIIVTGDTQVPPTDSYGHFEVAGKMLDFVQEFGTREIITMGGYQVPELQGEPRVLAAVTHPDLISYYQEKLKDCKVNVMWREDEGGAIVGAAGLLLGIGKLRGMFGISLLGESLGYIVDAKAAKAVLTAVAKILGLEIDMTALEERAKETEEILRKVEEMQRTIMEQQLPRPTHEEEDRGYL | not soluble |
| SEQKSTASGTCGGKPAERGPLAGHMPSSRPHRVDFCWVPGSDPGTFDGSPWLLDRFLAQLGDYMSFHFEHYQDNISRVCEILRRLTGRAQAWAAPYLDGDLPLPDDYELFCQDLKEVVQDPNSFAEYHAVVTCPLPLASSQLPVAPQLPVVRQYLARFLEGLALDMGTAPRSLPAAMATPAVSGSNSVSRSALFEQQLTKESTPGPKEPPVLPSSTCSSKPGPVEPASSQPEEAAPTPVPRLSESANPPAQRPDPAHPGGPKPQKTEEEVLETEGDQEVSLGTPQEVVEAPETPGEPPLSPGF | soluble |
| AQVSNGSNSGQMEEINTKEVAQRITTELKRYSIPQAIFAQRVLCRSQGTLSDLLRNPKPWSKLKSGRETFRRMWKWLQEPEFQRMSALRLAACKRKEQEHGKDRGNT | soluble |
| MKRRLLCALLASTLAQPLTVRADLPDLGEISDASLSLSDEARIGRDALRAMREAGDVVDDPEVNAYLNDVGGRLAAAAAVPGVRFTYFCVADAGINAFAMPGGYVGINIGLMLASQSEGELAAVLGHETAHVAQRHIARMQAANSAASPLLLLGTIVAAALAAKAGSGDGAMGAVSAGMGLSISRQLAFSRDFEREADRVGMQYMSAAGFDVRNMAAFFQRLEQASRYSDNTAYAFLRTHPVTLERISEAQNRALDYPVRMRADSVDYLLVREKLRVLTLSPEEAVSHYSSALQRGLYLNEGANWYGLARAKLLQHDRAGASEALAKARAKLPDNPMLYGLEVEIARDGRDWAAAARAARNGLSAFPRSVSLQLAQLDVALDGGDRKAAQAQLRQLLDSRRDDPALYRREAKLYADKDPLRYHAALGNAFYYEQRYGAALEQYQLAGKAKGDDFYLRSMLEARLREVEKLAKEERKAARNLEHHHHHH | soluble |
| MAIVNATDQTFAAETKDGLTLVDFWAPWCGPCRMIAPVLEELDREMGDKVKIVKVNVDENQETASKFGVMSIPTLLVFKNGELVDKAIGYQPKEALVQLVGKHVS | soluble |
| MSLASAIRICTKFSRLSLNSRSTSKSLIHCMSNVTADVPPVSETKSKFLKAYKRPIPSIYNTVLQELIVQQHLMRYKKTYRYDPVFALGFVTVYDQLMEGYPSDQDRDAIFKAYIEALNEDPKQYRIDAQKMEEWARSQTSASLVDFSSKEGDIEAVLKDIAGRAGSKEGFSYSRFFAVGLFRLLELASATDPTVLDKLCASLNINKKSVDRDLDVYRNLLSKLVQANELLKEYVEREKKKQEERAQSQKANETISKCLGDTLYNPSFLVERKSEGHHHHHH | soluble |
